Data reported in the supplement of paper PMC7877785.
± gives the uncertainty stated by the source.

Assay: self-splicing fitness, log relative to wild type (ln ratio); higher = more splicing; Tetrahymena group I intron in knt gene, E. coli kanamycin selection, DiMSum; sequences stand for … in CUCUCU…GGAGGGAAAAGUUAUCAGGCAUGCACCUGGUAGCUAGUCUUUAAACCAAUAGAUUGCAUCGGUUUAAAAGGCAAGACCGUCAAAUUGCGGGAAAGGGGUCAACAGCCGUUCAGUACCAAGUCUCAGGGGAAACUUUGAGAUGGCCUUGCAAAGGGUAUGGUAAUAAGCUGACGGACAUGGUCCUAACCACGCAGCCAAGUCCUAAGUCAACAGAUCUUCUGUUGAUAUGGAUGCAGUUCACAGACUAAAUGUCGGUCGGGGAAGAUGUAUUCUUCUCAUAAGAUAUAGUCGGACCUCUCCUUAAUGGGAGCUAGCGGAUGAAGUGAUGCAACACUGGAGCCGCUGGGAACUAAUUUGUAUGCGAAAGUAUAUUGAUUAGUUUUGGAGUACUCGUGGUCG
How it was run: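 Fitness was computed with DiMSum as the error-weighted combination of replicate fold changes, kanamycin versus none, each normalised to wild type. The library randomised all eight intron nucleotides of the P1ex region, with the intron placed in the knt kanamycin-resistance gene on pET-22b(+) in E. coli BL21(DE3). Six replicate transformations were grown overnight at 37°C or 30°C on LB agar with or without 25 μg/mL kanamycin, plus 100 μg/mL carbenicillin, 50 μM IPTG and 0.2% rhamnose. Pooled colonies were amplicon-sequenced on an Illumina HiSeq 2500.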

Sequence	self-splicing fitness (ln) (30 °C)	self-splicing fitness (ln) (37 °C)
UCUCAGCAAUAUUACGACAG	-2.76 ± 0.17	-2.33 ± 0.17
UCUCAGCAAUAUUACGAGCC	-1.14 ± 0.19	-1.68 ± 0.41
UCUCAGCAAUAUUACGAGUU	-2.32 ± 0.11	-1.13 ± 0.099
UCUCAGCAAUAUUACGAUGA	-1.01 ± 0.12	-0.477 ± 0.11
UCUCAGCAAUAUUACGAUUU	-1.99 ± 0.093	-1.1 ± 0.12
UCUCAGCAAUAUUACGCCAA	-2.86 ± 0.27	-2.74 ± 0.29
UCUCAGCAAUAUUACGCGAC		-2.37 ± 0.35
UCUCAGCAAUAUUACGCGGC	-4.17 ± 0.42	-1.86 ± 0.27
UCUCAGCAAUAUUACGCGGU	-2.89 ± 0.26	-2.3 ± 0.28
UCUCAGCAAUAUUACGCUCU	-3.26 ± 0.26	-2.68 ± 0.41
UCUCAGCAAUAUUACGCUUC	-2.92 ± 0.21	-2.33 ± 0.28
UCUCAGCAAUAUUACGGAGU	-2.81 ± 0.22	-2.49 ± 0.19
UCUCAGCAAUAUUACGGCAU	-2.27 ± 0.11	-2.4 ± 0.16
UCUCAGCAAUAUUACGGCGA	-1.13 ± 0.1	-0.623 ± 0.11
UCUCAGCAAUAUUACGGCUA	-0.678 ± 0.29	-2.19 ± 0.32
UCUCAGCAAUAUUACGUAAU	-3.43 ± 0.18	-2.28 ± 0.18
UCUCAGCAAUAUUACGUCUA	-2.95 ± 0.28	-1.38 ± 0.15
UCUCAGCAAUAUUACGUCUG	-4.98 ± 0.45	-2.82 ± 0.25
UCUCAGCAAUAUUACGUGAU	-4.03 ± 0.21	-1.85 ± 0.13
UCUCAGCAAUAUUACGUGGA	-3.7 ± 0.29	-1.05 ± 0.12
UCUCAGCAAUAUUACGUUAC		-1.86 ± 0.36

Sequence	self-splicing fitness (ln) (30 °C)	self-splicing fitness (ln) (37 °C)
UCUCAGCAAUAUUACGUUCA	-2.49 ± 0.14	-1.15 ± 0.14
UCUGAGCAAUAUUACGAAGC		-1.48 ± 0.37
UCUGAGCAAUAUUACGAAUC	-3.29 ± 0.25	-3.03 ± 0.43
UCUGAGCAAUAUUACGAAUG	-2.96 ± 0.26	-1.66 ± 0.21
UCUGAGCAAUAUUACGAUGG	-1.42 ± 0.16	-0.717 ± 0.2
UCUGAGCAAUAUUACGAUUU	-2.65 ± 0.22	-1.31 ± 0.2
UCUGAGCAAUAUUACGCAAA	-2.8 ± 0.33	-1.27 ± 0.19
UCUGAGCAAUAUUACGCCAA		-1.51 ± 0.32
UCUGAGCAAUAUUACGCCAU		-2.32 ± 0.31
UCUGAGCAAUAUUACGCCCG	-2.56 ± 0.28	-2.38 ± 0.49
UCUGAGCAAUAUUACGCCGU	-3.13 ± 0.48	-1.56 ± 0.36
UCUGAGCAAUAUUACGCGGA	-3.6 ± 0.27	-2.66 ± 0.21
UCUGAGCAAUAUUACGCUAG	-1.31 ± 0.17	-1.43 ± 0.19
UCUGAGCAAUAUUACGGCGA	-0.309 ± 0.12	0.122 ± 0.18
UCUGAGCAAUAUUACGGGAG	-4.4 ± 0.36	-2.65 ± 0.29
UCUGAGCAAUAUUACGGGCG	-1.33 ± 0.17	-2.56 ± 0.22
UCUGAGCAAUAUUACGGGGA	-2.89 ± 0.2	-1.97 ± 0.19
UCUGAGCAAUAUUACGGGGC	-3.3 ± 0.32	-2.7 ± 0.36
UCUGAGCAAUAUUACGGUGA	-0.612 ± 0.11	-0.1 ± 0.13
UCUGAGCAAUAUUACGUCAA	-2.53 ± 0.24	-2.22 ± 0.27
UCUGAGCAAUAUUACGUCUG	-1.01 ± 0.11	-1.4 ± 0.14

Sequence	self-splicing fitness (ln) (30 °C)	self-splicing fitness (ln) (37 °C)
UCUGAGCAAUAUUACGUGCA	-2.65 ± 0.19	-1.99 ± 0.22
UCUGAGCAAUAUUACGUUAG	-2.36 ± 0.14	-1.82 ± 0.17
UCUUAGCAAUAUUACGACCU	-1.75 ± 0.4	0.256 ± 0.43
UCUUAGCAAUAUUACGACUG	-2.53 ± 0.23	-1.69 ± 0.23
UCUUAGCAAUAUUACGCACU	-2.05 ± 0.33	-0.732 ± 0.36
UCUUAGCAAUAUUACGCGAU	-3.71 ± 0.33	-3.67 ± 0.34
UCUUAGCAAUAUUACGCUUG	-2.43 ± 0.24	-1.89 ± 0.23
UCUUAGCAAUAUUACGGCUU	-3.65 ± 0.41	-2.63 ± 0.48
UCUUAGCAAUAUUACGGGCA	-0.387 ± 0.14	-0.119 ± 0.16
UCUUAGCAAUAUUACGGGCU	-4.8 ± 0.46	-2.26 ± 0.28
UCUUAGCAAUAUUACGGUAU	-4.43 ± 0.39	-2.85 ± 0.29
UCUUAGCAAUAUUACGGUCU	-4.42 ± 0.42	-2.67 ± 0.32
UCUUAGCAAUAUUACGUCGA	-0.705 ± 0.13	-0.434 ± 0.15
UCUUAGCAAUAUUACGUCGG	-0.815 ± 0.21	-0.0675 ± 0.2
UCUUAGCAAUAUUACGUCUC	-3.09 ± 0.3	-2.39 ± 0.39
UCUUAGCAAUAUUACGUGGA	-3.14 ± 0.32	-3.03 ± 0.37
UCUUAGCAAUAUUACGUGGC		-1.6 ± 0.42
UCUUAGCAAUAUUACGUUAA	-2.98 ± 0.26	-2.67 ± 0.38
UCUUAGCAAUAUUACGUUAC		-2.83 ± 0.31
UGAAAGCAAUAUUACGAAAG	-2.61 ± 0.15	-0.866 ± 0.16
